The source of these data is patent US20260240820A1 (ION CHAT RESEARCH CORPORATE, published 2026).

Where no end group is shown, it is not given here.

B2: Human Type I taste receptor T1R3 (receptor, UniProt Q7RTX0 21-852, looked up)
chain: APLCLSQQLRMKGDYVLGGLFPLGEAEEAGLRSRTRPSSPVCTRFSSNGLLWALAMKMAVEEINNKSDLLPGLRLGYDLFDTCSEPVVAMKPSLMFLAKAGSRDIAAYCNYTQYQPRVLAVIGPHSSELAMVTGKFFSFFLMPQVSYGASMELLSARETFPSFFRTVPSDRVQLTAAAELLQEFGWNWVAALGSDDEYGRQGLSIFSALAAARGICIAHEGLVPLPRADDSRLGKVQDVLHQVNQSSVQVVLLFASVHAAHALFNYSISSRLSPKVWVASEAWLTSDLVMGLPGMAQMGTVLGFLQRGAQLHEFPQYVKTHLALATDPAFCSALGEREQGLEEDVVGQRCPQCDCITLQNVSAGLNHHQTFSVYAAVYSVAQALHNTLQCNASGCPAQDPVKPWQLLENMYNLTFHVGGLPLRFDSSGNVDMEYDLKLWVWQGSVPRLHDVGRFNGSLRTERLKIRWHTSDNQKPVSRCSRQCQEGQVRRVKGFHSCCYDCVDCEAGSYRQNPDDIACTFCGQDEWSPERSTRCFRRRSRFLAWGEPAVLLLLLLLSLALGLVLAALGLFVHHRDSPLVQASGGPLACFGLVCLGLVCLSVLLFPGQPSPARCLAQQPLSHLPLTGCLSTLFLQAAEIFVESELPLSWADRLSGCLRGPWAWLVVLLAMLVEVALCTWYLVAFPPEVVTDWHMLPTEALVHCRTRSWVSFGLAHATNATLAFLCFLGTFLVRSQPGCYNRARGLTFAMLAYFITWVSFVPLLANVQVVLRPAVQMGALLLCVLGILAAFHLPRCYLLMRQPGLNTPEFFLGGGPGDAQGQNDGNTGNQGKHE
notes: whole, on cells; Present on the cells as a T1R3/T1R3 homodimer or as a heterodimer with T1R2 or T1R1; also called TAS1R3; hT1R3

Assay [1] has as its target B2. Nature of the assay: fluorescence microscopy on SH-SY5Y cells.
The next assay addresses T1, Amyloid β peptide Aβ1-42.
T1 construct: Bought (Wako Pure Chemical Industries); also called Aβ42; amyloid β1-42 peptide
As to the kind of experiment: assay not described.

The target in assay [2] is T2, Fluorescent Aβ1-40 peptide (fluorescent label; dye and position not stated).
T2 construct: also called labeled Aβ1-40 peptide
T2 sequence (peptide, as listed by the source): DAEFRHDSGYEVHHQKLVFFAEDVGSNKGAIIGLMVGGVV
Nature of the assay: fluorescence microscopy on cell surfaces.

T1 sequence (peptide, as listed by the source): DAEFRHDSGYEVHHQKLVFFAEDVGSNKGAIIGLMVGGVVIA

B1: Fluorescently labeled Aβ25-35 peptide (FL-Aβ25-35) (peptide)
peptide: GSNKGAIIGLM
modifications: also: fluorescent label, dye and position not given here
notes: also called fluorescent Aβ25-35 peptide
On to B1, for which, in assay [1], the binding result is “binds”.

As for B2, the binding result (with Amyloid β peptide Aβ1-42; in assay [2]) was “binds” throughout.
